Here are results for two substances from article PMC8371249.

Assay [1] has as its target apo-SufR (clusterless Mtb SufR, Rv1460) (Mycobacterium tuberculosis). Put plainly: SEC. (In general: SEC sorts molecules by how far they enter the pores of the column.)
For assay [2], the target named is holo-SufR (Mtb SufR, Rv1460, with its 4Fe–4S cluster) (Mycobacterium tuberculosis). Put plainly: SEC.

Usually stoichiometry N stands for a count of units in the complex or per binding partner. In assay [1], “apo-SufR (clusterless Mtb SufR, Rv1460) (natural protein)” showed a stoichiometry N of 2.
“holo-SufR (Mtb SufR, Rv1460, with its 4Fe–4S cluster) (natural protein)” registered a stoichiometry N in assay [2] of 2.
